Test results taken from US8168591 (University of California, dated 2012).

Molecular target: T1, recombinant soluble integrin αvβ3 (UniProt P06756 31-992; P05106 27-718)
T1 construct: extracellular domain; 'extracellular domain' is my reading of that; Made in CHO K1 cells and purified on Ni-NTA; The docking simulation used PDB 1L5G; also called soluble αvβ3
Assay: Table 2 grade, αvβ3 binding (ELISA-type assay with soluble αvβ3)

T1 sequence (P06756 31-992, chain 1 of 2): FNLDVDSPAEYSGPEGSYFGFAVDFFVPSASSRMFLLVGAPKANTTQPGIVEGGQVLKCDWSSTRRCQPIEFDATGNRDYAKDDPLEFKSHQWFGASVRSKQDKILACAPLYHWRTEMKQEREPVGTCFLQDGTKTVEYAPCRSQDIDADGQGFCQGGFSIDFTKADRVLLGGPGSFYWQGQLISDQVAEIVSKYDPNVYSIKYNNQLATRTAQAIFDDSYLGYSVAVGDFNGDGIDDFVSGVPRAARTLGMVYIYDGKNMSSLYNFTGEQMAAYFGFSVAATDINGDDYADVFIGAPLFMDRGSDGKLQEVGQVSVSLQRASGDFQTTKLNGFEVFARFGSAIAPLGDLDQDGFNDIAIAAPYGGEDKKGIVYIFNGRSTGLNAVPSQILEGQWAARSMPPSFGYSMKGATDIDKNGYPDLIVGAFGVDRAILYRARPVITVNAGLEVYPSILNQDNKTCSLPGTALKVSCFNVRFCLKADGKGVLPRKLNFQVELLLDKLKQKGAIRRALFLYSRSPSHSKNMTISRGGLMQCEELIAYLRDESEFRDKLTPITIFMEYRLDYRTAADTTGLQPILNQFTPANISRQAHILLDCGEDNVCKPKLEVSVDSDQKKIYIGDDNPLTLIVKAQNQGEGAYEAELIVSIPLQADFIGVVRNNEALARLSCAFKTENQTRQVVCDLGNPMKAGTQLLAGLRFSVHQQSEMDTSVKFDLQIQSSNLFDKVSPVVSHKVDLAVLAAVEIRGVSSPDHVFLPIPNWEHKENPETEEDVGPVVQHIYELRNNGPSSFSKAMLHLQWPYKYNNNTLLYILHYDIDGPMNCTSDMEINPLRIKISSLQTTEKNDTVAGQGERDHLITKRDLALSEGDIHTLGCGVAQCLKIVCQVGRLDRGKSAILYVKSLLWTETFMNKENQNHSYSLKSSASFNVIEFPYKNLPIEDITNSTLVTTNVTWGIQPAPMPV
T1 sequence (P05106 27-718, chain 2 of 2): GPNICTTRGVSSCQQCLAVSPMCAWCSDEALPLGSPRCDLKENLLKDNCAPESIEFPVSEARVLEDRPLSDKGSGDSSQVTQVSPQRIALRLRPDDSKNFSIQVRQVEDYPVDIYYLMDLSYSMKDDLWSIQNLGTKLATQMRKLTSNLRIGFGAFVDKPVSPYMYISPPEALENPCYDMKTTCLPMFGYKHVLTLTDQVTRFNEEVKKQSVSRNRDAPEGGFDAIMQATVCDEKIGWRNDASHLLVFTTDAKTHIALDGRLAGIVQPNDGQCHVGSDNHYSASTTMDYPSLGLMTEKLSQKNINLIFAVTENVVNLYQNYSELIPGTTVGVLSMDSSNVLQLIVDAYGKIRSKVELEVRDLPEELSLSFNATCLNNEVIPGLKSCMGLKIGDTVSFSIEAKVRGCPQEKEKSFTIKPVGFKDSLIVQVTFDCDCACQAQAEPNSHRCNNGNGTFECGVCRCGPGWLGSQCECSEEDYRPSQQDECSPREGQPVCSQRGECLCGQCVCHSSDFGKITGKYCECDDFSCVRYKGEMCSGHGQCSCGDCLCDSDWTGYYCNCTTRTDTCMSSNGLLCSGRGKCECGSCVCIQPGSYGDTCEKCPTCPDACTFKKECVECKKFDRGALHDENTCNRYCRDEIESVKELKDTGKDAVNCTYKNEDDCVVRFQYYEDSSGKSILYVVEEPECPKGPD

binding result: binds
B1: FGF-1 Glu102/Tyr109/Asn110 to Ala mutant (3×A) (ligand)
chain: FNLPPGNYKKPKLLYCSNGGHFLRILPDGTVDGTRDRSDQHIQLQLSAESVGEVYIKSTETGQYLAMDTDGLLYGSQTPNEECLFLARLEENHAATYISKKHAEKNWFVGLKKNGSCKRGPRTHYGQKAILFLPLPVSSD
notes: also called 3xA; E1 02A/Y109A/Q110A
